experiment: yeast display, Sf9 membrane polyspecificity reagent, FACS + sequencing; frameworks hold sequencing errors
Outline: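 After 36–48 hours of galactose induction, yeast (Saccharomyces cerevisiae BJ5465) displaying a synthetic nanobody library were stained at 4 °C for 1 hour with 10% biotinylated, detergent-solubilized Sf9 membrane reagent. Streptavidin microbeads enriched the stained cells before FACS sorting into low and high (top ~1%) gates on anti-HA and streptavidin fluorescence. Each clone's polyreactivity label reflects its gate of origin.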

Row | Sequence | polyreactivity (PSR sort gate)
1 | QVQLVESGGGLVQAGGSLRLSCAATGSTFWPYAMGWYRQAPGKERELVAAIRVIGGSTYYADSVKGRFTISRDNAKNTVYLQMNSLKPEDTAVYYCNAYRPGGARFYARYRYDYCGQGTQVTVSS | low polyreactivity
2 | QVQLVESGGGLVQAGGSLRLSCAATGSTFWQYVMGWYRQAPGKERELVAAISYSGGSTYYADSVKGRFTISRDNAKNTVYLQMNSLKPEDTAVYYCATRGYRWSVFDYWGQGTQVTVSS | high polyreactivity
3 | QVQLVESGGGLVQAGGSLRLSCAATGTTFGYYTMGWYRQAPGKERELDAAISWSGSSTYYADSVKGRFTISRDTAKNTVYLQMNSLKPEDTAVYYCNARGGARAWYFAYKYWGQGTQVTVSS | high polyreactivity
4 | QVQLVESGGGLVQAGGSLRLSCAATRSIFSLYTMGWYRQAPGKERELVAVISSAGRTYYADSVKGRFTISRDNGKNTVYLQMNSLKPEDTAVYYCARLTGQRTQTRSDYWGQGTQVTVSS | high polyreactivity
5 | QVQLVESGGGLVQAGGSLRLSCAAYGFTFTRKAMGWYRQAPGKERELVAAISGSGGSTYYADSVKGRYTISRDNAKNTVYLQMNSLKPADTAVYYCAKDGWWRKYDYWGQGTQVTVSS | high polyreactivity
6 | QVQLVESGGGLVQAGGSLRLSCAAYGFTIRRYAMGWSIQAPGKERELVAAITWSAGSTYYADSVKGRFTISRDNAKYTVYLQMNSLKPEDTAVYYCAARCKRWGADSGYYWGNGTQVTVSS | high polyreactivity
7 | QVQLVESGGGLVQAGGSLRLSCAAYGGIFKQYALGCYRQAPGKERELVAANTWSGGSTYYADSVKGRFTISRDNAKNTVYLQMNSLKPEDTAVYYCAKDYVLFQYVDFQDDDYWGQGTQVTVSS | low polyreactivity
8 | QVQLVESGGGLVQAGGSLRLSCAAYGHIFFYYTMGWYRQAPGKERELVAAITIGGSTNYADSVKGRFTISRDYAKNTVYLQMNSLKPEDTAVYYCNVVKYVYIYSYWEYYYWGHGTQVTVSS | low polyreactivity
9 | QVQLVESGGGLVQAGGSLRLSCAAYGITFGANAMGWYRQAPGKERELVADITWSGGDTYYADSVKGRFTISRDNAKYTVYLQMTSLIPEDTAVYYCNALQPGLGSPLGEYDFWGQGTQVTVSS | low polyreactivity
10 | QVQLVESGGGLVQAGGSLRLSCAAYGITFTPNAMGWYRQAPGKEREFVAAITYSGGSTYYADSVKGRFTISRDNAKNTVYLQMNSLKPEDTAVYYCAAVYYLLYYEAYYYWGQGTQVTVSS | low polyreactivity
11 | QVQLVESGGGLVQAGGSLRLSCAAYGLIFAISAMGWYRQAPGKERELVAAIRWSGASTYADSVKGRFTISRDNAKNTVYLQMNSLKTEDTAVYYCAADDLLHYDYWGQGTQVTVSS | low polyreactivity
12 | QVQLVESGGGLVQAGGSLRLSCAAYGLIFGHYAMGWYRQEPGKERELVAAITTRGSSTYYADSVKGRFTISRDNAKNTVYLQMNSLKPEDTAVYYCNAKLVYGTTYKFDNWGQGTQVTVSS | high polyreactivity
13 | QVQLVESGGGLVQAGGSLRLSCAAYGLTFYGNAMGWYRQAPGKERELVAAISRGGRTYYADSVKGRFTISRDNAKKTVYLQRNSLKPEDTAVYYCATVVSRVKQPFDMDYWGQGTQVTVSA | low polyreactivity
14 | QVQLVESGGGLVQAGGSLRLSCAAYGLTFYHYTMGWYRQAPGKERELVAAISSSGVTTYYADSVKGRFTISRDNAKNTVYLQMNSLKPEDTAVYYCAAVWYPDRVQPENGTTDSPGDYWGQGTQVTVSS | low polyreactivity
15 | QVQLVESGGGLVQAGGSLRLSCAAYGNTLDVNAMGWYRQAPGKERELVPAITSGGSTNYADSVKGRFTISRDNAKNTVYLQMNSLKPEDTAVYYCAKGSGVTYVTETLNTDYGYWGQGTQVTVSS | low polyreactivity
16 | QVQLVESGGGLVQAGGSLRLSCAAYGRIFDAYAMGWYRQAPGKERELVAAITQSGGSTFYADSVKGRFTNSRDNAKNTVYLQMNSLKPEDTAVYDSNTGLSGRRYGFGVSFGMDYWGQGTQVTVSS | low polyreactivity
17 | QVQLVESGGGLVQAGGSLRLSCAAYGRIFFNNAMGWYRQAPGKERELVAAINSGGRTNYADSVKGRFTISRDNAKNTVYLQMNSLKPEDTAVYYCNADDYPVWEFDYWGQGTQVTVSS | low polyreactivity
18 | QVQLVESGGGLVQAGGSLRLSCAAYGRIFLGYAMGWYIQAPGKERELVAVISYSGTRTYYADSVKGRFTISRDNAKNTVYLQMNSLKPEDTAVYYCNARANGFKDGYWGQGTQVTVSS | high polyreactivity
19 | QVQLVESGGGLVQAGGSLRLSCAAYGRNFTYYAMGWYRQAPGKERELVAANSRSGGRTYYADSVKGRFTISRDNAKNTVYLQMNSLKPEDTGVYYCAADRLSLRAYDYWGQGTQVNVSS | high polyreactivity
20 | QVQLVESGGGLVQAGGSLRLSCAAYGRTFWRNAMGWYRQAPGKEREWVAAISRSGDSTRYADSLKGRFTISRDNAKNTFYLQMNSLKPEDTAVYYCNKLGTRVYEMDYWGQGTQVTVSS | high polyreactivity
21 | QVQLVESGGGLVQAGGSLRLSCAAYGRTIPRYAIGWSRQAPGKQRDFVDSISFSSGSTYYADSVKGRFTISRDNAKNTVYVQMKSMKAEDTAVDYSNDIPGSRYYGYRLYYYWGQGTQVTVSS | high polyreactivity
22 | QVQLVESGGGLVQAGGSLRLSCAAYGRTIRVYAMVWYRQAPGKERELVAAITSGDSTYYADSVKGRFTISRDNAKNTVYLQMNSLKPEDTAVYYCAVNTRRYWYGYWGQGTQVTVSS | high polyreactivity
23 | QVQLVESGGGLVQAGGSLRLSCAAYGRTISRNTMAWYRQAPGKERELVAGITYGGDRTYYADSVKGRFTISRDNAKNTVYLQMNSLKPEDTSVYYCAAPWYWKGLRDYWGQGTQVTVSS | low polyreactivity
24 | QVQLVESGGGLVQAGGSLRLSCAAYGSIFRVYAMGWYRQAPGKEREFVAAITRRGTRTYYADSVKGRFTISRDNAKNTVYLQMNSLKPEDTAVYYCAAYFTDGLFEYWGQGTQVTVSS | low polyreactivity
25 | QVQLVESGGGLVQAGGSLRLSCAAYGSIFSWNAMGWYIQAPRKERELVAGITWSGGGTSYADSVKGRFTISRDNAKNTVYLQMNSLKPEDTAVYYCAKEWIFEFNYWGQGTQVTVSS | low polyreactivity
26 | QVQLVESGGGLVQAGGSLRLSCAAYGSIFYFNAMGRYRQAPGKERELVASITSGGSTNYADSVKGRFTISRDNAKNTVYLQMNSLKPEETEVYYCNARFPYLSRWLVRGLASYDYWGQGTQVTVSS | low polyreactivity
27 | QVQLVESGGGLVQAGGSLRLSCAAYGSIFYYNAMGWYRQAPGKERELVAAITKSGTRTNYADSVKGRFTLSRDNAKNTVYLQMNSLKPEDTAVYYCAAEDQYYRYLFAYEYWGQGTQVTVSS | high polyreactivity
28 | QVQLVESGGGLVQAGGSLRLSCAAYGSILYVYAMGWYRQAPGKERELVAVITAGGSTNYADSVKGRFTISRDNAKNTVYLQMNSLKPEHSAVYYCAADPYSVYGGDYWGQGTQVTVSS | low polyreactivity
29 | QVQLVESGGGLVQAGGSLRLSCAAYGSTFYNNVMGWYRPAPGKERELVAAINSGGRTYYADSVKGRFTISRDNAKNTVYLQMNSLKPEDTAVYYCAVGYGRAGRMDYWGQGTQVTVSS | high polyreactivity
30 | QVQLVESGGGLVQAGGSLRLSCAAYGSTLTWNAMGWYRQAPGKERELVAAITGVGSTNYADSVKGRFTISRDNAKNTVYLQMNSLKPEDSAVYYCAAQGSGSTLYEYWGQGTQVTVSS | low polyreactivity

— the nanobody polyreactivity screen of Harvey et al. (2022)
